Assay results published in patent US20090311248A1.

Molecular target: E1s (HCV E1 envelope protein, aa 192-326 of the HCV polyprotein) (Hepatitis C virus (HCV))
Experiment: coating ELISA, E1s at 0.5 ug/ml, hybridoma supernatant

4G2 (antibody)
O.D. value (450-595 nm): > 2 O.D.
